Paper PMC10037535

Target: F-4p-18mer-tail (synthetic fluorescein-labeled tetraphosphorylated PTEN C-tail peptide)
Test: fluorescence polarisation

fold weakening of the phospho-tail interaction against wild-type VSP: 3.4 fold
Substance: VSP Asp mutants of the active site Lys residues (Lys364 and Lys367) (domain or fragment)
